# According to IntAct's records for PubMed 22114287:
# B1: Platelet-activating factor acetylhydrolase IB subunit beta (Mus musculus), P63005 (parent)
# chain: MVLSQRQRDELNRAIADYLRSNGYEEAYSVFKKEAELDMNEELDKKYAGLLEKKWTSVIRLQKKVMELESKLNEAKEEFTSGGPLGQKRDPKEWIPRPPEKYALSGHRSPVTRVIFHPVFSVMVSASEDATIKVWDYETGDFERTLKGHTDSVQDISFDHSGKLLASCSADMTIKLWDFQGFECIRTMHGHDHNVSSVAIMPNGDHIVSASRDKTIKMWEVQTGYCVKTFTGHREWVRMVRPNQDGTLIASCSNDQTVRVWVVATKECKAELREHEHVVECISWAPESSYSSISEATGSETKKSGKPGPFLLSGSRDKTIKMWDVSTGMCLMTLVGHDNWVRGVLFHSGGKFILSCADDKTLRVWDYKNKRCMKTLNAHEHFVTSLDFHKTAPYVVTGSVDQTVKVWECR
# partner: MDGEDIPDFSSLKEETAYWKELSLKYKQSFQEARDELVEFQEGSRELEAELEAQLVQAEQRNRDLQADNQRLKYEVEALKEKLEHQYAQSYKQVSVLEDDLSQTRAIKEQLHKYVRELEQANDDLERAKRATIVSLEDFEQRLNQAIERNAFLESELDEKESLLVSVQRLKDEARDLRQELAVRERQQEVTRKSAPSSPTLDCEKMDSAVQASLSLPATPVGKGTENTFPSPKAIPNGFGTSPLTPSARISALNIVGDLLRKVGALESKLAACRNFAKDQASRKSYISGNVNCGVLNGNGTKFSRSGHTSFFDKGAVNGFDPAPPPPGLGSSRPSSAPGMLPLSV
# Variants of: B1
# Settings: with ndel1_human NDEL1, Q9GZM8
row,Variant,effect of a mutation on the interaction
1,K147A,with no effect
2,R212A,disrupting interaction
